Patent US5336488A, “Method of treating or preventing mastitis in animals with involuting mammary glands by administering recombinant cytokines” (American Cyanamid Company, priority 1992, dated 1994)

What was measured:
[1] = system: S. aureus; test: Therapy of established S. aureus mastitis infections; assay type: in vivo, S. aureus (in lactating Holstein dairy cattle)
Description: The percentage of quarters clearing the infection for greater than 1 milking (RESPONDING), as compared to the percentage of quarters which actually cure their infections (CURE) is a measure of the failure of the host cells to kill the bacteria. The relapse rate is the greatest for r-BoIL-2 (combined relapse rate of 40% for the 10 mg dose X's 3). […] Furthermore, if activation of the host cells is effective, as indicated by the r-BoIL-2 and r-BoGM-CSF, then a combination therapy with r-BoIL-1 or antibiotics is useful.
^1 S. aureus infections are established 2-3 weeks prior to treatment.
Treatments are administered after the AM or PM milking by 1-3 successive
intramammary infusions. A total of 120 mammary glands from 28 different
lactating Holstein dairy cattle are used. Recombinant bovine
interleukin1(IL-1) and interleukin2(IL-2) are obtained from IMMUNEX Corp.
Seattle, WA. Na cephapirin is prepared is PBS; and CefaLak ®
(BristolMeyers) is used according to package# insert instructions.
^2 Cytokines are infused intramammary through the teat canal after th
PM milking at the indicated intervals. The total dose is delivered in a
total volume of 10 ml of sterile PBS. The biological activity of rBoIL-1
and rBoIL-2 is 32,000 Units/μg and 22,000 Units/μg, respectively. A
total dose per infusion 200 mg of Na cephapirin and CefaLak ® is
administered after consecutive PM and AM milkings, according to described
^3 The % RESPONDING = quarters which transiently (> 1 milking) are
free of S. aureus divided by the total number of quarters treated.
^4 The % CURED QUARTERS = # of quarters which clear their infection
and remain free of S. aureus divided by the total number of quarters
treated. Infections are considered to have relapsed if there are > 1 CFUs
from three consecutive AM milkings, or > 20 CFUs for two consecutive afte
therapy at anytime during the 14 day monitoring period.
^5 The % RELAPSE = [1 - {[…]}] ×

[2] = system: milk PMNs; test: Inducible superoxide of milk PMNs after PMA stimulation (cytochrome-c reduction); assay type: in vivo, bovine (Holstein dairy cattle); conditions: r-BoGM-CSF, vs resident PMNs, FIG. 2I
Description: (§1) FIGS. 2(A-I): Quantity and Quality of Milk PMNs from Mammary Glands Infused with r-BolL-1 or r-BoIL-2
(§2) A total of 12 mammary glands from normal lactating Holstein dairy cattle are infused through the teat canal with either 200 μg of r-BoIL-1; 2 mg of r-BoIL-2; or 1 mg of r-BoGM-CSF. Milk samples are collected and the number of viable somatic cells counted on a Coulter® ZM with a C256 Channelyzer. The data is expressed as the somatic cell count per ml of milk sampled at 16, 40, 64 and 88 hours after infusion for r-BoIL-1 (A); r-BoIL-2 (D); or r-BoGM-CSF(G). The total percentage of phagocytosis by milk PMNs (polymorphonuclear cells) is quantitatively measured by flow cytometry by measuring the percentage of cells ingesting 2μ fluorescent beads for r-BoIL-1 (B); r-BoIL-2(E); or r-BoGM-CSF(H). The total population is first gated by forward angle light scatter, FALS and 90° light scatter to only consider viable polymorphonuclear cells. The induction of superoxide after PMA (520.eta.g)stimulation is also monitored using a whole cell cytochrome-c reduction assay, for r-BoIL-1 (C); r-BoIL-2(F); or r-BoGM-CSF(I). PMNs from untreated milk could not be induced to produce superoxide, while peripheral blood PMNs are inducible in a range of 5-15 .eta.M O2 /Minute/10^7 PMNs.

[3] = system: milk PMNs; test: Quantity of milk PMNs after intramammary infusion; assay type: in vivo, bovine (Holstein dairy cattle)
Description: as §1, §2

[4] = system: Bovine Mammary Gland; test: Dose response of bovine mammary gland to intramammary infusion: somatic cell influx into milk; assay type: in vivo, bovine (Holstein dairy cattle)
Description: FIG. 1: Dose Response of Bovine Mammary Gland to Intramammary Infusion of Recombinant Cytokines
Five fold serial dilutions of r-BolL-1 (recombinant bovine interleukin-1) from 312.5 μg to […]: r-BoIL-2 (recombinant bovine interleukin-2) from 40 mg to 0.1 mg: and r-BoGM-CSF (recombinant bovine granulocyte macrophage colony stimulating factor) from 0.2 mg to […] are administered at time 0 into 3-4 mammary glands from normal lactating Holstein dairy cattle. A total of 54 mammary gland quarters, 3-4 per group, are infused through the teat canal with various concentrations of recombinant bovine cytokines after the morning milking. Milk samples are collected and the number of viable somatic cells counted on a Coulter® ZM with a C256 Channelyzer. The data is expressed as the somatic cell count per ml of milk
These doses are guidelines for quantitative induction of somatic cells, but significant beneficial qualitative changes can be induced with lower doses. The specific biological activity for r-BoIL-1 as a chemoattractant is approximately 10,000 fold greater than r-BoIL-2, although the in vitro specific bioactivities are equivalent. Active IL-2 inhibition or decreased biostability in milk might explain this discrepancy. The peak number of cells after r-BoIL-1 infusion with a maximal tolerable dose is 4-5 fold greater than r-BoIL-2. The kinetics of PMN migration into the mammary gland is such that migration occurs 8- 24 hours sooner for r-BoIL-1 infusions […] the BolL-2 infusion depending upon the dose. The dominant cell type after r-BoIL-1 or r-BoIL-2 infusion is PMNs.

[5] = system: S. aureus; test: Prevention of S. aureus mastitis in lactating animals; assay type: in vivo, S. aureus (in lactating Holstein dairy cattle); conditions: for % CONTROL / % INFECTED: 1 mg, vs Control 2 (30 CFUs)
Excerpt: This maximal protection correlates with the peak quantitative biological response for this cytokine. […] This also correlates with the peak quantitative biological response of this cytokine and also marks the qualitative increase in phagocytosis and inducible superoxide, FIG. 2D & 2E.
^1 Single intramammary infusion administered after the PM milking. A
total of 100 mammary glands from 22 different lactating Holstein dairy
^2 All glands are free of bacteria on 5 successive samples after the
AM milking prior to the initial infusion.
^3 The total dose in mass of protein is indicated. The biological
^4 Infusions of cytokines were administerd simultaneously with S.
aureus 0, 24 or 48 hours proir to challenge with 30-200 CFUs of S.
^5 Individual quarters are considered cured if the milk samples remai
free of S. aureus. for 14 days after intramammary challenge with of S.
^6 The % Control = (1 - {% Infected After Therapy divided by Infected
in Control Quarters)} × 100.
*Quarters in Control 1 are challenged with 250 CFUs of S. aureus..
Quarters in Control 2 are challenged with 30 CFUs of S. aureus.

[6] = Specific biological activity of recombinant cytokine protein; conditions: mass of protein
[7] = system: milk PMNs; test: Phagocytosis of fluorescent beads by milk PMNs (flow cytometry) after intramammary infusion; assay type: in vivo, bovine (Holstein dairy cattle); conditions: FIG. 2H
Description: as §1, §2

| Molecule | % CURES ([1]; 200 mg, interval 12 hrs) [%] | % RELAPSE ([1]; 200 mg, interval 12 hrs) [%] | % RESPONSE ([1]; 200 mg, interval 12 hrs) [%] | relapse rate ([1]; as quoted in text of Example 5) [%] | inducible superoxide production [2] | quantitative changes in milk PMNs ([3]; as summarised in Example 4) | quantitative increase in milk PMNs ([3]; even with a 5 mg intramammary dose, FIG. 2G) | influx of cells into the mammary gland ([4]; intramammary infusion of up to 5 mg) | infiltration of somatic cells into the milk ([4]; intramammary infusion, lactating cattle, FIG. 1) | % CONTROL ([5]; -24 hrs) [%] | % INFECTED ([5]; -24 hrs) [%] | % CONTROL ([5]; -48 hrs) [%] | % INFECTED ([5]; -48 hrs) [%] | protection from S. aureus ([5]; administered 24 and 48 hours prior to challenge) | protection from subsequent S. aureus challenge ([5]; intramammary infusion, Table 1) | biological activity [6] | phagocytic ability of the cells in the milk of treated glands ([7]; 24 and 48 hours) | percent of cells which are phagocytic ([7]; r-BoGM-CSF) | increase in phagocytosis, duration ([7]; r-BoGM-CSF, up to 112 hrs) |
| --- | --- | --- | --- | --- | --- | --- | --- | --- | --- | --- | --- | --- | --- | --- | --- | --- | --- | --- | --- |
| CC(=O)OCC1=C(C(=O)O)N2C(=O)[C@@H](NC(=O)CSc3ccncc3)[C@H]2SC1 [Na Cephapirin, sodium cephapirin, reference compound] | 42 | 51 | 86 | 57 | – | – | – | – | – | – | – | – | – | – | – | – | – | – | – |
| recombinant bovine granulocyte macrophage colony stimulating factor (protein, UniProt P11052 18-143, looked up) Granulocyte-macrophage …: APTRPPNTATRPWQHVDAIKEALSLLNHSSDTDAVMNDTEVVSEKFDSQEPTCLQTRLKLYKNGLQGSLTSLMGSLTMMATHYEKHCPPTPETSCGTQFISFKNFKEDLKEFLFIIPFDCWEPAQK | – | – | – | – | increased over the resident PMNs | only minor quantitative changes in milk PMNs | fails to elicit any significant quantitative increase in milk PMNs | fails to elicit any significant influx of cells into the mammary gland | no significant chemoattractant activity | 76 | 20 | 76 | 20 | good protection from S. aureus | capable of protecting the host from subsequent S. aureus challenge | 38,000 Units/μg | increase phagocytic ability | enhanced | maintained above pre-infusion levels for up to 112 hrs |
